# Laboratory results reported in article PMC2192624 (The Journal of Experimental Medicine, 1996).
# Biological target: T1, Gal4 DNA-binding domain (DNABD) linked to the full-length CIITA (pSGCIITA) (UniProt P33076 1-1130)
# T1 sequence: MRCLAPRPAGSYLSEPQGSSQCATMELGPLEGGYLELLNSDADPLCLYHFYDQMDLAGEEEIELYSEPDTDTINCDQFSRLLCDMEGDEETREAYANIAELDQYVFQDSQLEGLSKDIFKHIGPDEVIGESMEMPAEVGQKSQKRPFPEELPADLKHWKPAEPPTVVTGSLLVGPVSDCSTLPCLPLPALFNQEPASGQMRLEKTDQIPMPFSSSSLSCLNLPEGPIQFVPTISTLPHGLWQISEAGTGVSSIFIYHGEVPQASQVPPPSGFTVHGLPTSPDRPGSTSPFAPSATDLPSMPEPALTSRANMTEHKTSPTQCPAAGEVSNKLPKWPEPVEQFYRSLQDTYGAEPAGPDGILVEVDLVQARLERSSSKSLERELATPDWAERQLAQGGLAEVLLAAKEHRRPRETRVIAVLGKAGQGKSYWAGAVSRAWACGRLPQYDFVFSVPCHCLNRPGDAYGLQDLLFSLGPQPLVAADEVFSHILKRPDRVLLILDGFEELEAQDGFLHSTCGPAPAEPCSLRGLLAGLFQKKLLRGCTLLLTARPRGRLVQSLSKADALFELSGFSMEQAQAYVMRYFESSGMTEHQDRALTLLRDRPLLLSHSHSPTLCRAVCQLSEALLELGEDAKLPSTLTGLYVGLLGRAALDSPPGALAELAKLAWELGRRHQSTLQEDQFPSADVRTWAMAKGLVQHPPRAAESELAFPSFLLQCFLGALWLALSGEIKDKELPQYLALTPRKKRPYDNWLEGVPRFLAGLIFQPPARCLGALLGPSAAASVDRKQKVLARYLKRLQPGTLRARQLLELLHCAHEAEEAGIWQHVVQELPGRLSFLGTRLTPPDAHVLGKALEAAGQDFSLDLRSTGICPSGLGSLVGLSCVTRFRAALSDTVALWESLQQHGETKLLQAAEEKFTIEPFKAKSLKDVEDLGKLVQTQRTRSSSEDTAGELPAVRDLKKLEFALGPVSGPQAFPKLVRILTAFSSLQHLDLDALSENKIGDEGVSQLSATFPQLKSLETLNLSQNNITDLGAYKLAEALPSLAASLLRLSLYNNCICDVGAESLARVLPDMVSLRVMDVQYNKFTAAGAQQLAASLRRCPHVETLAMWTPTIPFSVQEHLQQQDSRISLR
# Assay: two-hybrid
binder,measurement,value
Bob1 expressed from pCBOB1 (natural protein) MLWQKPTAPEQAPAPARPYQGVRVKEPVKELLRRKRGHASSGAAPAPTAVVLPHQPLATYTTVGPSCLDMEGSVSAVTEEAALCAGWLSQPTPATLQPLAPWTPYTEYVPHEAVSCPYSADMYVQPVCPSYTVVGPSSVLTYASPPLITNVTTRSSATPAVGPPLEGPEHQAPLTYFPWPQPLSTLPTSTLQYQPPAPALPGPQFVQLPISIPEPVLQDMEDPRRAASSLTIDKLLLEEEDSDAYALNHTLSVEGF,"fold transactivation of pDRAUASgCAT (CAT reporter, with OBS)",95 fold
same,"fold transactivation of pG1E1bCAT (CAT reporter, no OBS)",90 fold
